Reference: publication PMC8777168 (2022)

B1: STUB1, expressed from a plasmid in 293T cells [not stated] / MIF in 293T cells [not stated] (parent complex)
chain 1: MKGKEEKEGGARLGAGGGSPEKSPSAQELKEQGNRLFVGRKYPEAAACYGRAITRNPLVAVYYTNRALCYLKMQQHEQALADCRRALELDGQSVKAHFFLGQCQLEMESYDEAIANLQRAYSLAKEQRLNFGDDIPSALRIAKKKRWNSIEERRIHQESELHSYLSRLIAAERERELEECQRNHEGDEDDSHVRAQQACIEAKHDKYMADMDELFSQVDEKRKKRDIPDYLCGKISFELMREPCITPSGITYDRKDIEEHLQRVGHFDPVTRSPLTQEQLIPNLAMKEVIDAFISENGWVEDY
chain 2: PMFIVNTNVPRASVPDGFLSELTQQLAQATGKPPQYIAVHVVPDQLMAFGGSSEPCALCSLHSIGKIGGAQNRSYSKLLCGLLAERLRISPDRVYINYYDMNAANVGWNNSTFA

Variants of: B1
Experiment: co-immunoprecipitation (IP: Myc, IB: MIF) and western blot, band quantification; 293T cells transfected for 24 h with STUB1 mutation plasmids; triplicate experiments, mean ± SD; read off a plot

| Variant | response [MIF/Input ratio] |
| --- | --- |
| chain 1 S149A | ~1 |
| chain 1 K143A | ~0.22 |

Results, then the variant that gave them:

| response [MIF/Input ratio] | Variant |
| --- | --- |
| ~0.25 | chain 1 R66A |
| ~1 | chain 1 W147A |
